Experimental data: US10562947B2, “Compositions and methods for preventing or treating diseases, conditions or processes characterized by aberrant fibroblast proliferation and extracellular matrix deposition” (MOERAE MATRIX, INC., priority 2011, dated 2020)

Tests used:
Assay in all cases: Kinase Profiling Assay
Assay type in all cases: biochemical
Conditions in all cases: 100 μM peptide
JNK2α2(h) = JNK2α2(h) (Homo sapiens, UniProt P45984)
Method in brief: (§1)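 Each kinase in a 266-member human panel is assayed, in duplicate, for activity in the presence of MK2 inhibitory peptides to gauge specificity.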

Flt1(h) = Flt1(h) (Homo sapiens, UniProt P17948)
Chain of Flt1(h) (P17948 27-1338): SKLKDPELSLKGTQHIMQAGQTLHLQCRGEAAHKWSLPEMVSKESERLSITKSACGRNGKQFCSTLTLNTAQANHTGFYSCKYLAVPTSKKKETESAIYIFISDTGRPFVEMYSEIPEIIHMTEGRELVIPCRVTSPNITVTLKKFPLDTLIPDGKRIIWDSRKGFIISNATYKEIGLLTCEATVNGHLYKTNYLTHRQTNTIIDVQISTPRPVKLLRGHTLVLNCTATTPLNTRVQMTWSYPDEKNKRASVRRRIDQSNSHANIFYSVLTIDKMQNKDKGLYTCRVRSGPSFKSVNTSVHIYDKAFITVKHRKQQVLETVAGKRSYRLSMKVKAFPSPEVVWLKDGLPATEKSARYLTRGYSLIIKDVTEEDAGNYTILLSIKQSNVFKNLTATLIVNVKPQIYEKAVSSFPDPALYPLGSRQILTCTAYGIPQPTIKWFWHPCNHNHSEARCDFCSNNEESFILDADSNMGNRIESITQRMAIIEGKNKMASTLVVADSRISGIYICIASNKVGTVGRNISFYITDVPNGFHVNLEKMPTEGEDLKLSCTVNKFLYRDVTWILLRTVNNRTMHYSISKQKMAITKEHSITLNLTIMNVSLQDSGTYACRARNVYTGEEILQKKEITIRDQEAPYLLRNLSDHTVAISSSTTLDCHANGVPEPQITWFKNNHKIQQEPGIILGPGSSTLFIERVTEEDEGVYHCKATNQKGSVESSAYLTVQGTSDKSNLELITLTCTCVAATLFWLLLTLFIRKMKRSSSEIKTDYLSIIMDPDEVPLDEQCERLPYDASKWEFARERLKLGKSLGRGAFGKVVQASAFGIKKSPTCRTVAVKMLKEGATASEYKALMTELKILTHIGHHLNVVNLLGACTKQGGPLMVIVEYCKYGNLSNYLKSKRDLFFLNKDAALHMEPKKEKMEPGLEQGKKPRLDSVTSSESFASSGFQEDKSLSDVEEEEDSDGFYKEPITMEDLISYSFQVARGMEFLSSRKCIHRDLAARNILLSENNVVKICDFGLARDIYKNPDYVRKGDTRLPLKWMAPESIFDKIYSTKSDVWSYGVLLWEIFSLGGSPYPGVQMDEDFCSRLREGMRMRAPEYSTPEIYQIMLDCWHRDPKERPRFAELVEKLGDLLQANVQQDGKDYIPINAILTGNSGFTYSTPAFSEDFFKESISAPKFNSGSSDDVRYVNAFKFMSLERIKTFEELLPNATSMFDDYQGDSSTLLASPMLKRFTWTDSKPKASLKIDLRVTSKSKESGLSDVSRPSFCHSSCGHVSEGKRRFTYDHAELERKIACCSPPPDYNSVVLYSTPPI
Method in brief: as §1

PDGFRα(h) = PDGFRα(h) (Homo sapiens, UniProt P16234)
Method in brief: as §1

Met(Y1248C)(h) = Met(Y1248C)(h) (Homo sapiens, UniProt P08581, Y1230C)
Method in brief: as §1

GCK(h) = biological target: T1, GCK(h) (Homo sapiens, UniProt Q12851)
T1 construct: purchased Millipore
T1 sequence (Q12851 1-820): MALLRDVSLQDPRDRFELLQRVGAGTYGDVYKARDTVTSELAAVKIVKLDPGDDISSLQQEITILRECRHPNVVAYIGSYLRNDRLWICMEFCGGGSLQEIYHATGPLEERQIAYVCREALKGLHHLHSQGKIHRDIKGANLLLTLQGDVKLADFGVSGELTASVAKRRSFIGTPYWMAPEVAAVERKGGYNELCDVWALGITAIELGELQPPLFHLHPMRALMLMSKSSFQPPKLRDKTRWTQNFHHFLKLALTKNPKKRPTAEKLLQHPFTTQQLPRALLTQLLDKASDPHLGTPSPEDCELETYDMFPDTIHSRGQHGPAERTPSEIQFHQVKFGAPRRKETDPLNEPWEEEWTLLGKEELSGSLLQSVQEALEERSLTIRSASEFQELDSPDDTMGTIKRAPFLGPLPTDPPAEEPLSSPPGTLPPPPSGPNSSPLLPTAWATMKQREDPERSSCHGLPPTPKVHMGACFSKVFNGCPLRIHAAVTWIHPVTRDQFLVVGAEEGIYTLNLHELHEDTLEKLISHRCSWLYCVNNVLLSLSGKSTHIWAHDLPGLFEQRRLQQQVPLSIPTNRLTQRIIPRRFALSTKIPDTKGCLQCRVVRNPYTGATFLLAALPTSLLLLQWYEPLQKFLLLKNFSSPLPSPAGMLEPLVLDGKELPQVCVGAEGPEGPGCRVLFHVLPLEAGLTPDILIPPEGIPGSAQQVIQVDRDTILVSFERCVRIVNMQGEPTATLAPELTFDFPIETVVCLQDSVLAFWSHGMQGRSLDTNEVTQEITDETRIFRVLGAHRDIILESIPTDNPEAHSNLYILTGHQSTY
Method in brief: as §1

WNK3(h) = WNK3(h) (Homo sapiens, UniProt Q9BYP7)
Chain of WNK3(h) (Q9BYP7 whole entry): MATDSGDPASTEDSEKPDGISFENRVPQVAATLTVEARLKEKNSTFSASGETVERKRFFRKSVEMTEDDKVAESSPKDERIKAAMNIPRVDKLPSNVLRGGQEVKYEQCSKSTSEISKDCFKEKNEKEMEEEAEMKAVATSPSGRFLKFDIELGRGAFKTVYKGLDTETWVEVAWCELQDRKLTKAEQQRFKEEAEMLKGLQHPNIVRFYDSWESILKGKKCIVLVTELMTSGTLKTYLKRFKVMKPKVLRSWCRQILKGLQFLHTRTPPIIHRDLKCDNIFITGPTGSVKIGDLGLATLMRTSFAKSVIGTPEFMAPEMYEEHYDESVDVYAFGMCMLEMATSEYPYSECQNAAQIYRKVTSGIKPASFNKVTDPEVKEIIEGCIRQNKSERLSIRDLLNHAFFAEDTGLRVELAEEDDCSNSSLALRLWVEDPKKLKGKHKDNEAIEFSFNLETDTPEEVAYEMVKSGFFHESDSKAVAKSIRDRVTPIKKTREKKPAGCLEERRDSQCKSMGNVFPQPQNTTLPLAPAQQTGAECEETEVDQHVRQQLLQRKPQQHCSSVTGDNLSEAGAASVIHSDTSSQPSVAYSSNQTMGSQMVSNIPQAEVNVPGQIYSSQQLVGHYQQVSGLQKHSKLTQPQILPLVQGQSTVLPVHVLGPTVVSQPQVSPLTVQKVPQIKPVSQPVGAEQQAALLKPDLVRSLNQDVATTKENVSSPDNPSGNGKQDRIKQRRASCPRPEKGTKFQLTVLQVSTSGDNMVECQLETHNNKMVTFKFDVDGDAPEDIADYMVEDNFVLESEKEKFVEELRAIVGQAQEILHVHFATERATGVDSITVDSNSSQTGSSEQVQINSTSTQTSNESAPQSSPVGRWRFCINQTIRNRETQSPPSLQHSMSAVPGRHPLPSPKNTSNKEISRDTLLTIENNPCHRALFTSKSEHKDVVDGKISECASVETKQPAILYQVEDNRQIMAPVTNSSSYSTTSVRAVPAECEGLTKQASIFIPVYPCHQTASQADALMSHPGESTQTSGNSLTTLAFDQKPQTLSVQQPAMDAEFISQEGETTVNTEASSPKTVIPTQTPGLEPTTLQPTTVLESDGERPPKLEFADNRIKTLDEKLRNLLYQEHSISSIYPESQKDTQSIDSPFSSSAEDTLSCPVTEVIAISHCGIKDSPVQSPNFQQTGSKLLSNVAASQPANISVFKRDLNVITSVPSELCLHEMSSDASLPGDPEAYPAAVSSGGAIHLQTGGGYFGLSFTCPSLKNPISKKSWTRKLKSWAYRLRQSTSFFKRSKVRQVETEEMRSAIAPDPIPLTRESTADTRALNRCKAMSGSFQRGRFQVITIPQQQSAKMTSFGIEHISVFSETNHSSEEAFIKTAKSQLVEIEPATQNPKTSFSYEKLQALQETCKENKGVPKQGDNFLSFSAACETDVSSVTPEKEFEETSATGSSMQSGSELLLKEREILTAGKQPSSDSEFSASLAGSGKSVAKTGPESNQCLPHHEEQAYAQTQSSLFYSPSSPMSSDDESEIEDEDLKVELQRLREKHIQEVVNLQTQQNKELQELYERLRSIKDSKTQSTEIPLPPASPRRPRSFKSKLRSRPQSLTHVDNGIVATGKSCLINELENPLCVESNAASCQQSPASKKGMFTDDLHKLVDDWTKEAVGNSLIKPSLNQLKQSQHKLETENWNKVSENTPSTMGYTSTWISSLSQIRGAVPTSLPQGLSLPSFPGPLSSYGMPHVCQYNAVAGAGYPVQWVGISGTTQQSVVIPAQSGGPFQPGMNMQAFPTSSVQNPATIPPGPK
Method in brief: as §1

Axl(h) = Axl(h) (Homo sapiens, UniProt P30530)
Method in brief: as §1

ROCK-I(h) = biological target: T2, ROCK-I(h) (Homo sapiens, UniProt Q13464)
T2 construct: purchased Millipore (IC50 Profiler Express service)
Method in brief: as §1

PKG1α(h) = biological target: T3, PKG1α(h) (Homo sapiens, UniProt Q13976)
T3 construct: purchased Millipore (IC50 Profiler Express service)
T3 sequence (Q13976 1-671): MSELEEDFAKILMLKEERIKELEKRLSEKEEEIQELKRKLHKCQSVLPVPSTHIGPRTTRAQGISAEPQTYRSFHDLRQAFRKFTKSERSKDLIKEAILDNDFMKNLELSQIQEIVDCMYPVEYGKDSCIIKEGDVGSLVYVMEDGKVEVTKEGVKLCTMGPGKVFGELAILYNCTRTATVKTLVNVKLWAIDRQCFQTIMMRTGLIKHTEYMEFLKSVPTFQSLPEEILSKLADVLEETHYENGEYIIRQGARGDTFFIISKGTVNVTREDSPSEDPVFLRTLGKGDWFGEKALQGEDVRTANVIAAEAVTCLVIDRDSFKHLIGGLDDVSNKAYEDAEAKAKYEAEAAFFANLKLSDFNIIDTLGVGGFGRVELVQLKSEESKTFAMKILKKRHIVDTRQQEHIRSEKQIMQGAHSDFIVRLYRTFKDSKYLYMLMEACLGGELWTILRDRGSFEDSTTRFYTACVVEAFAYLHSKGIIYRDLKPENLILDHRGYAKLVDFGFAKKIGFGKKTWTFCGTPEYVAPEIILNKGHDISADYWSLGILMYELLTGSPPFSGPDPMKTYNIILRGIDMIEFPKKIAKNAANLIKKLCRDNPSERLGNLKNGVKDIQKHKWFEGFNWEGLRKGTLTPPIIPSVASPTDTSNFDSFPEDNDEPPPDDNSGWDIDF
Method in brief: as §1

FAK(h) = FAK(h) (Homo sapiens, UniProt Q05397)
Chain of FAK(h) (Q05397 whole entry): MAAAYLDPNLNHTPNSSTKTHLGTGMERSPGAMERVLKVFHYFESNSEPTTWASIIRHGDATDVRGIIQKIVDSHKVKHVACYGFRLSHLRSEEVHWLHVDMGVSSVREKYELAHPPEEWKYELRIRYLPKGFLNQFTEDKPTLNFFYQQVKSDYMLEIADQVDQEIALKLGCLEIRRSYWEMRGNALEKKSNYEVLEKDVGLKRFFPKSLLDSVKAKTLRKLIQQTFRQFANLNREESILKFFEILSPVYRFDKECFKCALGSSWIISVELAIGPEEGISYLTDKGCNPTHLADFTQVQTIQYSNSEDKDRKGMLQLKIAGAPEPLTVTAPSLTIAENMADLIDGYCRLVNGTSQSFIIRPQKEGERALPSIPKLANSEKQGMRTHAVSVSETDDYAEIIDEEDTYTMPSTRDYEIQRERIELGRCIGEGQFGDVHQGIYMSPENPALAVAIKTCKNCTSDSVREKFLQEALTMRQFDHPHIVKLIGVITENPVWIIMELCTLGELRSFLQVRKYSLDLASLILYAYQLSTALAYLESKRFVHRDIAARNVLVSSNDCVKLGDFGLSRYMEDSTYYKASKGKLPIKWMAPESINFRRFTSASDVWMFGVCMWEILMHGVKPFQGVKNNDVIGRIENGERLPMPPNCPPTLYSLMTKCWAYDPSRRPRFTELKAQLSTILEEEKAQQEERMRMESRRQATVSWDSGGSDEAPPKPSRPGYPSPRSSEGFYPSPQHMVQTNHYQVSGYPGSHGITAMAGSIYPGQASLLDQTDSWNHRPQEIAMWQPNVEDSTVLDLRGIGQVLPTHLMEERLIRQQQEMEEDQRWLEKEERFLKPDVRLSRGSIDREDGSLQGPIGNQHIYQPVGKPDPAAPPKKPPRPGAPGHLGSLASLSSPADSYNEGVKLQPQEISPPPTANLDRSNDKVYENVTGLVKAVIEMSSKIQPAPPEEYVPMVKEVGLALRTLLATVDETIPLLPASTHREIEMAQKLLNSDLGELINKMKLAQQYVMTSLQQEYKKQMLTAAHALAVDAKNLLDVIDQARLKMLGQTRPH
Method in brief: as §1

Txk(h) = biological target: T4, Txk(h) (Homo sapiens, UniProt P42681)
T4 sequence (P42681 1-527): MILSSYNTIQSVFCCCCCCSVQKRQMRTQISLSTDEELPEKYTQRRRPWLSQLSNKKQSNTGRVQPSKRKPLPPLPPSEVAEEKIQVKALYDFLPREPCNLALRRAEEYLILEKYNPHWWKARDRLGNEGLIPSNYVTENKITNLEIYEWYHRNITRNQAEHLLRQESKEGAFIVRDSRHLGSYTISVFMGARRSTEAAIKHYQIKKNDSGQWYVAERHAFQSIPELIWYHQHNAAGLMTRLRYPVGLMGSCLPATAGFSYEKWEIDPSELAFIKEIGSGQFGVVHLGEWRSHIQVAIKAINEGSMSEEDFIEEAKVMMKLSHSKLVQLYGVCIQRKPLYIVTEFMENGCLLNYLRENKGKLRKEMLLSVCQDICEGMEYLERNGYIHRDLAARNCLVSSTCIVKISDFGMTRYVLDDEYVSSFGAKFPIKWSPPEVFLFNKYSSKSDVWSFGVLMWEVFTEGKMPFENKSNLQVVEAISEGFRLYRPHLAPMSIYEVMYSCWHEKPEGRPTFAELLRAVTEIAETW
Method in brief: as §1

Sequence	JNK2α2(h) % activity (JNK2α2(h)) [%]	Flt1(h) % activity (Flt1(h)) [%]	PDGFRα(h) % activity (PDGFRα(h)) [%]	Met(Y1248C)(h) % activity (Met(Y1248C)(h)) [%]	GCK(h) % activity (GCK(h)) [%]	WNK3(h) % activity (WNK3(h)) [%]	Axl(h) % activity (Axl(h)) [%]	ROCK-I(h) % activity (ROCK-I(h)) [%]	PKG1α(h) % activity (PKG1α(h)) [%]	FAK(h) % activity (FAK(h)) [%]	Txk(h) % activity (Txk(h)) [%]
HRRIKAWLKKIKALARQLGVAA (Mammalian) [MMI-0500]	81	27	40	73	30	9	12	17	25	94	10
FAKLAARLYRKALARQLGVAA [MMI-0300]	98	69	65	84	70	77	52	79	64	–	48
YARAAARQARAKALNRQLGVA (Mammalian) [MMI-0200]	–	96	108	141	99	97	99	–	70	110	98
KAFAKLAARLYRKALARQLGVAA [MMI-0400]	96	48	40	36	66	74	41	73	58	96	37
